Measurements: US20240287484

What was measured:
Details in all cases: qPCR; 3 mM MgCl2, 37 C
[1] = test system: T1, MG153-17 RT (uncultivated organism (metagenomic))
T1 sequence: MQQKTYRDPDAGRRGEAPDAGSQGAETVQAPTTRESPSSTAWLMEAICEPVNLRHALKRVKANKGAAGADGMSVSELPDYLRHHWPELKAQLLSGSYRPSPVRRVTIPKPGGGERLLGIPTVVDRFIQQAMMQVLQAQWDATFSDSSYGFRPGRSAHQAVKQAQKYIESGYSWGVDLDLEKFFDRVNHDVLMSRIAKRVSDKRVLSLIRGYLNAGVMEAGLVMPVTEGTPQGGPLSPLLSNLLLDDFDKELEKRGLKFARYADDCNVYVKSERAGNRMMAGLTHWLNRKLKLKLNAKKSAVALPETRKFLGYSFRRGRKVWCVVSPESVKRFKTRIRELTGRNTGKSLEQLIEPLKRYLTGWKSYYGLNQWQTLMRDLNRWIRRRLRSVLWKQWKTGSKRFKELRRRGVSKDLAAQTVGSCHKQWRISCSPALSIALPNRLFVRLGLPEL

[2] = test system: T2, MG153-26 RT (uncultivated organism (metagenomic))
T2 sequence: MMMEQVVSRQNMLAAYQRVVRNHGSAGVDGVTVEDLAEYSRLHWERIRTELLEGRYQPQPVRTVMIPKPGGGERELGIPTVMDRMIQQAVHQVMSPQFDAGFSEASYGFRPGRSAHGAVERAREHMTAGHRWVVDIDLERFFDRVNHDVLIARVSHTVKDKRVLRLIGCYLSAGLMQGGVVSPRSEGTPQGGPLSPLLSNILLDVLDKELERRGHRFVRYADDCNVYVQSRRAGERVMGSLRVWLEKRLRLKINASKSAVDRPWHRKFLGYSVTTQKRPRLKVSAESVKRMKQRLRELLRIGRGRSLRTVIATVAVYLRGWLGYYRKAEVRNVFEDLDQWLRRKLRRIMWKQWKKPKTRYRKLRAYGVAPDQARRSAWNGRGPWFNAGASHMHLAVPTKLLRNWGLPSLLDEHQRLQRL

[3] = test system: T3, MG153-27 RT (uncultivated organism (metagenomic))
T3 sequence: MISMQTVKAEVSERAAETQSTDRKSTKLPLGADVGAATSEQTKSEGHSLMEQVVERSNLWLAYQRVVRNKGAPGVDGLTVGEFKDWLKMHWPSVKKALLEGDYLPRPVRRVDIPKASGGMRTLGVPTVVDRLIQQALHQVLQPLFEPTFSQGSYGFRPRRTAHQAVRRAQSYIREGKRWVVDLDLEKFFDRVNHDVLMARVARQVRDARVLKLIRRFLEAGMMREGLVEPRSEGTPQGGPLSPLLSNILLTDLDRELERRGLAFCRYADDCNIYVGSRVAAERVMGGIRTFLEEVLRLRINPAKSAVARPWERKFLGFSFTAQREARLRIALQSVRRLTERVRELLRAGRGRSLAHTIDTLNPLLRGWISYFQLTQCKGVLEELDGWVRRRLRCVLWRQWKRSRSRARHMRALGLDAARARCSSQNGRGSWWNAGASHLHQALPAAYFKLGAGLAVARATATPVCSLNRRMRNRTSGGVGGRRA

[4] = test system: T4, MG153-56 RT (uncultivated organism (metagenomic))
T4 sequence: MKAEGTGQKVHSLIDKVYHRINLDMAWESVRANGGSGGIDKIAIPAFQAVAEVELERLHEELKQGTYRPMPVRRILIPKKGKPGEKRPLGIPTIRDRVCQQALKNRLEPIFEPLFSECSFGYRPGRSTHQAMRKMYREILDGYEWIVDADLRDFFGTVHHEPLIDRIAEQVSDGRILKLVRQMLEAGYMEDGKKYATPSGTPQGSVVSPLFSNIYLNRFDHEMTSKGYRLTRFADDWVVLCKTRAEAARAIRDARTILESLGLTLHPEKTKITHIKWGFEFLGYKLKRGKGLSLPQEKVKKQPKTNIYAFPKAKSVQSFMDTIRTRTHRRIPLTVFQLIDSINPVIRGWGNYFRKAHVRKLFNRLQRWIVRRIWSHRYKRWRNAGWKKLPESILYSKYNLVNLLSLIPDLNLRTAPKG

Measured: activity (fold over background)

200 nt RNA template annealed to DNA primer
> 10: [1] | [2] | [3] | [4]
